Data taken from the DeepSol protein solubility set.

test: soluble on expression in E. coli; label from the status in PepcDB or PDB records

Row | Sequence | soluble on expression in E. coli
1 | MPPLPEKVQSHRATPIQSSGVSALPLVEYHAPGSDRLAIMISGDGGWRTLDRNLSKELQRRGISVVGWNSLRYFWKLRTPEQLGDDLSRVIADYQRRWGAHQVILIGYSFGADVMPFAYAHLMPTQRNGVDFISLLALGRKADFKARIFGWLGWGEHGTRDVLTALGALDLHRVQCIYGQNDKDAVCPELRERIFDVVMRPGGHHFDGDTVKLADAILQGWQRRIELREPRNADSPR | not soluble
2 | MPFSFFSRKKPSRRFNDFYEDWSKTLTENCLPLLRQSLSSAASASVLSSNVDLVLRHLVLYYETLDLAADHNTIPYLLFPSWRNSLETPFLFLGDIHPYLLTNLLRSFIDRENQDSDDEDEETSLDLVNQPLKMTMAWKDPSDELVKRIDQIECTMRLMVPGLMDRMRKTQRSFVARVSESWVSSYQVGKKKKLTATVATASTSVDEAAKIEMEELVSIFVDANRLRKSVIMDIVGATSEHQAALFLEGLCQFLAGFKDQILLQDFEILSLPN | soluble
3 | MKYMITSKGDEKSDLLRLNMIAGFGEYDMEYDDVEPEIVISIGGDGTFLSAFHQYEERLDEIAFIGIHTGHLGFYADWRPAEADKLVKLLAKGEYQKVSYPLLKTTVKYGIGKKEATYLALNESTVKSSGGPFVVDVVINDIHFERFRGDGLCMSTPSGTTAYNKSLGGALMHPSIEAMQLTEMASINNRVYRTIGSPLVFPKHHVVSLQPVNDKDFQISVDHLSILHRDVQEIRYEVSAKKIHFARFRSFPFWRRVHDSFIEDLEHHHHHH | soluble
4 | MGSDKIHHHHHHSCDGMDATYKEFIEEGPIVYIGKVDSLKAYAGRNRAMLEWQKLLDPRAKTAKIFWENRTRSTELQLTDKAGLTQVIVKDLAEGSYVFEVCTYDTHGNSSIMSEVPCTVYGDVYEKLLFNTKVKTAVLKNDVLTITFAASLEPTFFGSEITYTSIDGGDKTVILKAPETQIKIDDFAGDRIIYRSVYLPEETAIDYFYSESDEFEIK | not soluble
5 | MVPPNDEIEDGFYLIDDSNHDEDLDFSDFPWLDPDHPLFFPATQANNSKGSTRWDAVNKFSVENWYPHLRKHTFKSHFITLNYNDIHYLMGNIPPDYDSSKLESIFNKILSEFNNKEVFMRLSTRSPKDSKFLFEEASTIMSKDFVYWNENDNKHQQLVSFVASMLKAMKIKSGRKIIETIAQSPRVYNDLLALVSSSNQSDCTTNVILREWHDIRPDHEFRVFVSRRHRKESIVTAISQYFHFLYFDKSPADCFNFLDEEDKKAVIKKFENYVLKSVDPDVAKFLNFSSEQDDDESSDCIREYIVDLALIPVSQYHGEITDENIIEIGANTYVMVVIELNPFAPAATGSGLFNWKNDLEHHHHHH | soluble
6 | AEDIFGELFNEANNFYIRANSLQDRIDRLAVKVTQLDSTVEEVSLQDINMKKAFKSSTVQDQQVVSKNSIPNPVADIYNQSDKPPPLNILTPYRDDKKDGLKFYTDPSYFFDLWKEKMLQDTEDKRKEKRRQKEQKRIDGTTREVKKVRKARNRRQEWNMMAYDKELRPDNRLSQSVYHGASSEGSLSPDTRSHASDVTDYSYPATPNHSLHPQPVTPSYAAGDVPPHGPASQAAEHEYRPPSASARHMALNRPQQPPPPPPPQAPEGSQASAPMAPADYGMLPAQIIEYYNPSGPPPPPPPPVIPSAQTAFVSPLQMPMQPPFPASASSTHAAPPHPPSTGLLVTAPPPPGPPPPPPGPPGPGSSLSSSPMHGPPVAEAKRQEPAQPPISDARSDLLAAIRMGIQLKKVQEQREQEAKREPVGNDVATILSRRIAVEYSDSDDDSEFDENDWSD | soluble
7 | NILKALLPTSTAGSLPKPAWLAEPETLWSPWKLQGEELTEGKHDALRLSLQDQQQAGIDIVSDGEQTRQHFVTTFIEHLNGVDFEKRKTVKIRDRYDASVPTVVGPVSRQKSVFVEDAKFLRQQTKQPIKWALPGPMTMIDTLYDDHYKSREKLAWEFAKILNQEAKELEAAGVDIIQFDEPAFNVFFDEVNDWGIACLERAIEGLNCETAVHICYGYGIKANTDWKKTLGSEWRQYEEAFPKLQKSNIDIISLECHNSHVPMELLELIRGKKVMVGAIDVASNTIETPEEVANTLRKALKFVDADKLYPCTNCGMAPLSHQVARGKLNALSAGAEIVRRELST | not soluble
8 | SLAPPAPPVSYGVEEDVFHPVRAKQGMVASVDATATQVGVDILKEGGNAVDAAVAVGYALAVTHPQAGNLGGGGFMLIRSKNGNTTAIDFREMAPAKATRDMFLDDQGNPDSKKSLTSHLASGTPGTVAGFSLALDKYGTMPLNKVVQPAFKLARDGFIVNDALADDLKTYGSEVLPNHENSKAIFWKEGEPLKKGDTLVQANLAKSLEMIAENGPDEFYKGTIAEQIAQEMQKNGGLITKEDLAAYKAVERTPISGDYRGYQVYSMPPPSSGGIHIVQILNILENFDMKKYGFGSADAMQIMAEAEKYAYADRSEYLGDPDFVKVPWQALTNKAYAKSIADQIDINKAKPSSEIRPGKLAPYESNQTTHYSVVDKDGNAVAVTYTLNTTFGTGIVAGESGILLNNQMDDFSAKPGVPNVYGLVGGDANAVGPNKRPLSSMSPTIVVKDGKTWLVTGSPGGSRIITTVLQMVVNSIDYGLNVAEATNAPRFHHQWLPDELRVEKGFSPDTLKLLEAKGQKVALKEAMGSTQSIMVGPDGELYGASDPRSVDDLTAGY | soluble
9 | MEIKEVLPCIADPKKLRVIGRVDGNFPAVMPYLARLIPNASYNEKRGWISFKKGQRIITIHEDGFVAMTQIKDEDEAKSILGEIEQKAQEAWEKRNKIDLSKPLEKTVVSPFDVYNYLPKTNCKRCGEQTCMAFAVKLLNGEVDIKACKPLFEDKKYEGLRETLIGMLVAAGYDLEL | soluble
10 | MANHAKLVDQEIYRSPVDDFELNYQEYLNDDDDDKQEAPVAVSKAPKGKGSNHGLGCRMKGLFDGFGGTDLKTIMRHLRRRRPKSGQALTNFMLSGNMEKVVDQHVKDFVHHFGRINPENGRIMGALRGNDFFNFGGLHNNLGNTGKVYLDNLMKGKCGKKRKVHKFKPIVVEELDFGAPKPAVPATPKAPVAPVAPVIPAPAVTPQKPKVDEPTYADSVSDFGLDFETEREKCLRNKTLFEDPEFPATAASLYYRTPPRDRIIWKRPGEIIANPQLITQGESRFDVKQGALGDCWFLAALANITLYDALFYRIVPPNQSFTENYAGIFHFQFWHYGKWVDVVVDDRLPTVNNQLYYLHSADNTEFWSALVEKAYAKLHGGYENLDGGTTAEALEDFTGGLTEYFDLRKSEKAAVLAALVKGMEMGSLFGCSIDADANIKEAQLRNGLVCGHAYSITAIHSITYYGEDTTLLRLRNPWGNEKEWNGAWSDGSSEWSKIDEATKKQIDVQFARDGEFWMSFEDFFSNFTQMEVCNLTAEIFDEIAEMTGVNRATETVEEEHQWHEIMEDGEWSSKHSWRLQQQPIYLPQEPSILHFLHSTTILY | not soluble
11 | MTSAEMTSPNNNSEHQAIAKMRTMIEGFDDISHGGLPIGRSTLVSGTSGTGKTLFSIQFLYNGIIEFDEPGVFVTFEETPQDIIKNARSFGWDLAKLVDEGKLFILDASPDPEGQEVVGGFDLSALIERINYAIQKYRARRVSIDSVTSVFQQYDASSVVRRELFRLVARLKQIGATTVMTTERIEEYGPIARYGVEEFVSDNVVILRNVLEGERRRRTLEILKLRGTSHMKGEYPFTITDHGINIFPLGAMRLTQRSSNVRVSSGVVRLDEMCGGGFFKDSIILATGATGTGKTLLVSRFVENACANKERAILFAYEESRAQLLRNAYSWGMDFEEMERQNLLKIVCAYPESAGLEDHLQIIKSEINDFKPARIAIDSLSALARGVSNNAFRQFVIGVTGYAKQEEITGLFTNTSDQFMGAHSITDSHIATITDTIILLQYVEIRGEMSRAINVFKMRGSWHDKAIREFMISDKGPDIKDSFRNFERIISGSPTRITVDEKSELSRIVRGVQEKGPES | soluble
12 | MAGDPMRKSKLTFIATFLILLFLSMPYKAHAASQTPITRADAEQRALTMINLNWTYSKSKNGVLPSAYSGSITAPSQFRGIENVVATGIPYCWGGFDGLNSSSYGESWTNFTDAVNKGAFVGNVKSSSYGHITGTAGLDCSGFVQATFNIKDYKLSTSTIFNQYFTKIDIKDIKHMDILNLPGNHVVIFDKWGTRNGVNGAYTYEATPDTTYGGIQGTKQYFMSMNTVSQYIPGRYVNIKEVAYVQVINASSLNIRTGPSTSYPIIGTISQNQIAEVTGYSSDGTWYKIKINGIEGYASSTYLTYVNNLEHHHHHH | not soluble
13 | VSAASLSKSAPAEPQPGPPQPAAGPQALPAIGGLTPFSSVDWPGQLAAVVFIAGCPWRCHYCHNPHLQERARGLDWREVLDFLGRRRNLLDAVVFSGGEPLSEPRLPQLIDAARALGLRIGLHTGGIYPARFAEVLPRLDWVGLDIKTTAPRYDALTGRRGSAAPVDACLDLLLRSHCAFECRTTWHPDWLPEPQLLALAQSLCSRGVKHYAIQAYRSAPGTLATALPSEATQHALAACFSSFSCR | soluble
14 | GPGSMTKAASLKKGSGDKRAREASLQEATARKVKVETAAMLPKASHDSQAHPNLFSWLLNTSRGEFFRKYFERKHLVASHGSGEYFASGLPGVVPPVNWSTERMLEHVKTHPSRYGADLDIVKFDPKLKRRVSYRTKGLVDAAELEACMKDGWSVRFLRPNEFIESNSAFIGCIEKEFNCYCGANSYWTPANSQGFAPHYDDVDVFFLQLEGEKLWCLYDPPEDVDVLARHSSEDYAPERFPTPKHTITLKAGDVLYMPRGTVHQGKTTLKTHSLHITFSANQMNSWADFMSRAAQYTVETLAANKLEWRRALPRDMPQVMGEVNNPVFRDTHGLPALSANQQDHRANLQTKVREMVAELTLLLTDEVNMDVCADVYGKDTIQKLQPPSRTYSGAAPASRKLSHASRVRLISRNCMRLLLNVPGEARVYHIGQNSTVCLAGELGELRFEADFAPAIATLLSSYPKTMPVSALPFPGFDNSDDVAENQLLLVETLRDAGLLHVGSSAKGNAPS | soluble
15 | MENGEAKQSVPLLTPYKMGRFNLSHRVVLAPLTRQRSYGNVPQPHAAIYYSQRTTPGGFLITEATGVSDTAQGYQDTPGIWTKEHVEAWKPIVDAVHAKGGIFFCQIWHVGRVSNSGFQPNGKAPISCSDKPLMPQIRSNGIDEALFTPPRRLGIEEIPGIVNDFRLAARNAMEAGFDGVEIHGANGYLIDQFMKDTVNDRTDEYGGSLQNRCKFPLEIVDAVAKEIGPDRVGIRLSPFADYMESGDTNPGALGLYMAESLNKYGILYCHVIEARMKTMGEVHACPHTLMPMRKAFKGTFISAGGFTREDGNEAVSKGRTDLVAYGRWFLANPDLPKRFQVDAPLNKYDRPTFYTSDPVVGYTDYPFLESTA | soluble
16 | MRKYKLGIYEKALPKNISWQDRLSIAKSCGFDFVEMSIDETDERLARLEWSKEQRLALVNSIVTTGITIPSMCLSGHRRFPFGTRDQATREKAYEIMEKAIQFAVDTGIRTIQLAGYDVYYEEQDQGTIERFQQGLAWAVELAASNQVTLAVEIMDTPFMSSISRWKKWDEMINSPWFTVYPDIGNLSAWNDNIEQELALGINKISAIHLKDTYKITKDCAGQFRDVPFGDGCVDFKGFFEILAKLNYRGAFLIEMWTEKAEEPIAEIINARRWIEQKMKEGGFEC | not soluble
17 | MSLRVTYRRRLSYNTTSNKKRLVKTPGGRLVVQYIKKRGQIPKCRDTGVKLHGITPARPIALRLLKRNERTVTRAYGGCLSPNAVKERITRAFLVEEQKIVNKVIKHQKD | not soluble
18 | MKRDGHTHTEFCPHGTHDDVEEMILKAIELDFDEYSIVEHAPLSSEFMKNTAGNQEAVTTASMSMSDLPYYFKKMNQMKKKYASDLLIHIGFEVDYLIGYEDFTRDFLNEYGPQTDDGVLSLHFLEGQGGFRSIDFTAEDYNEGIVQFYGGFEQAQLVYLAGVKQSIEADLGAFKPRRIGHISLCQKFQQFFGADGRDFTAEVIAEFEAILALVKKRGYELDFNTAGLFKPLCKETYPPKEIVTLARALEIPFVYGSDSHGVADIGRGYNTYCQKLEHHHHHH | soluble
